From patent US6645501B2, “Anti-pathogen system and methods of use thereof” (Washington University, priority 1997, dated 2003)

Key:
Type in all cases: cell-based
[1] = system: HIV-infected (NLHX strain) and uninfected Jurkat T-cells; test: FACS analysis of transduction and retention of fusion proteins in HIV-infected and uninfected Jurkat T-cells; details: about 35 to 45 nanomoler, about 30 minutes, HIV (NLHX) infected Jurkat culture
Description: To see if p16 fusion proteins could remain in the cell cytosol of the HIV infected cells, the TAT-HIV1,2 p16 fusion proteins produced in Example 3 were purified and labeled with FITC as described above. About 35 to 45 nanomoler of the labeled fusion protein was then added to HIV-infected (NLHX strain) and uninfected Jurkat T-cells in accordance with Example 6 below. The transduced Jurkat T-cells were then analyzed by FACS. All (100%) of cells in a mixed population of HIV infected/uninfected cells were transduced with the p16 protein at 1, 2, 4, 8 and 16 hours post-addition of the FITC conjugated fusion protein. However, when the cells were washed in fresh media and the PTD has driven out of the cells due to the concentration gradient (now high inside and 0 outside), the infected cells retained the cleaved substrate (the p16 portion) but uninfected controls lost all of the transduced protein (it transduced out) as determined by the continued presence of FITC-labeled p16 as analyzed by FACS.
About 5×10^6 Jurkat T-cells were infected by HIV (strain NLHX; about 1×10^5 to 1×10^6 infectious virus per ml). The cells were propagated in RPMI media. Approximately 4 to 7 days after the infection, the media was removed from the plates and about 35 to 45 nanomoler of the TAT-CPP32 fusion protein was added to the cells. […]

[2] = system: Jurkat T-cells infected by HIV (strain NLHX); test: Killing of HIV-infected Jurkat T-cells, trypan blue exclusion and microscopy; details: about 18 hours post-transduction
Description: About 5×10^6 Jurkat T-cells were infected by HIV (strain NLHX; about 1×10^5 to 1×10^6 infectious virus per ml). The cells were propagated in RPMI media. Approximately 4 to 7 days after the infection, the media was removed from the plates and about 35 to 45 nanomoler of the TAT-CPP32 fusion protein was added to the cells. The cells were incubated with the fusion proteins for about 30 minutes to allow transduction into the cells. […] Subsequently, media was added back to the plates and after about 18 hours post-transduction, the cells were examined for cell killing using conventional trypan blue exclusion and microscopy.
Briefly, cells were infected and transduced as described in Example 6 above. Following the transduction, about 1 μg/ml Ritonavir was added to the cell media and allowed to incubate with the cells for about 18 hours. The cells were then assayed for cell killing by conventional trypan blue exclusion and microscopy. […]

Jurkat T cells = test: Co-transduction of uninfected Jurkat T cells with TAT-CPP32 and TAT-Protease, survival by trypan-blue exclusionary dye microscopy; details: 50-100 nM, uninfected Jurkat T cells, 18 hr post-addition
Description: To test for activation of the TAT-CPP32 by TAT-Protease, 2×10^6 Jurkat T cells were placed in 2 ml of culture (RPMI media). To these cells, various combinations of control and experimental transducible proteins were added in 50-100 nM ranges, as follows:
The cells were assayed for survival at 18 hr post-addition by trypan-blue exclusionary dye microscopy. […] Thus, activation of TAT-CPP32 requires the presence of HIV protease.

B1: TAT-CPP32: HIS-TAT-PTD-HIV2-large subunit of CPP32-HIV1-small subunit of CPP32 fusion protein (protein)
chain: GRKKRRQRRRGYPYDVPDYACTERQANFLGKIWPGISLDNSYKMDYPEMGLCIIINNKNFHKSTGMTSRSGTDVDAANLRETFRNLKYEVRNKNDLTREEIVELMRDVSKEDHSKRSSFVCVLLSHGEEGIIFGTNGPVDLKKITNFFRGDRCRSLTGKPKLFIIQACRGTELDCGIETSQVSQNYPIVQNLQGVDDDMACHKIPVEADFLYAYSTAPGYYSWRNSKDGSWFIQSLCAMLKQYADKLEFMHILTRVNRKVATEFESFSFDATFHAKKQIPCIVSMLTKELYFYH
modifications: left off: small tags and cut ends
notes: HIS-TAT-PTD-HIV2-large subunit of CPP32-HIV1-small subunit of CPP32 fusion protein
[1]
  cells transduced by the fusion protein: about 100%
[2]; about 35 to 45 nanomoler
  killing of HIV-infected cells: about all of the infected cells were killed
[2]
  killing of uninfected cells in the population: does not kill
Jurkat T cells
  cytotoxicity when added alone: minimal cytotoxicity
  loss of viable cells when added plus TAT-Protease: substantial loss of viable cells
